According to the supplement of paper PMC10065799, “High-throughput profiling of sequence recognition by tyrosine kinases and SH2 domains using bacterial peptide display” (eLife, 2023):

Tests used:
c-Src SH2 = experiment: SH2 binding enrichment of the phosphorylated peptide, bacterial display (enrichment ratio); higher = better substrate or ligand; peptides without Tyr show the background
Grb2 SH2 = Grb2 SH2 (UniProt P62993); experiment: as above
SHP2-C SH2 = experiment: as above
Fer (mouse) = experiment: phosphorylation enrichment, bacterial display (enrichment ratio); higher = better substrate or ligand; peptides without Tyr show the background
Fyn = Fyn (UniProt P06241); experiment: as above
Sequence of Fyn (P06241 whole entry, looked up): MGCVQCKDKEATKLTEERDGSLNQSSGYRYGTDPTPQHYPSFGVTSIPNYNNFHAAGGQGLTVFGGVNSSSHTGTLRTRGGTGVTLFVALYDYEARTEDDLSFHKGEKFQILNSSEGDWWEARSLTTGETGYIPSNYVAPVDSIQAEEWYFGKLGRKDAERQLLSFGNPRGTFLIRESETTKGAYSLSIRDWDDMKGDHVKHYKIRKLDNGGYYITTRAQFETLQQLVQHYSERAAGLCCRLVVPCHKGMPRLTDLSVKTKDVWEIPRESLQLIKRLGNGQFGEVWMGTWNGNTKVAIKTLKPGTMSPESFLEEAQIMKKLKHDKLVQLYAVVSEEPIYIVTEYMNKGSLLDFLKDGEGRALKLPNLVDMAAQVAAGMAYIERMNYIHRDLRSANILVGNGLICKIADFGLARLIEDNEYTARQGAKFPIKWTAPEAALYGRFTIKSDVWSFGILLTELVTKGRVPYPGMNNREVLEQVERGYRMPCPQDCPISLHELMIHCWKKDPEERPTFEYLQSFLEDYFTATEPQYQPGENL

FGFR3 = FGFR3 (UniProt P22607); experiment: as above
Sequence of FGFR3 (P22607 whole entry, looked up): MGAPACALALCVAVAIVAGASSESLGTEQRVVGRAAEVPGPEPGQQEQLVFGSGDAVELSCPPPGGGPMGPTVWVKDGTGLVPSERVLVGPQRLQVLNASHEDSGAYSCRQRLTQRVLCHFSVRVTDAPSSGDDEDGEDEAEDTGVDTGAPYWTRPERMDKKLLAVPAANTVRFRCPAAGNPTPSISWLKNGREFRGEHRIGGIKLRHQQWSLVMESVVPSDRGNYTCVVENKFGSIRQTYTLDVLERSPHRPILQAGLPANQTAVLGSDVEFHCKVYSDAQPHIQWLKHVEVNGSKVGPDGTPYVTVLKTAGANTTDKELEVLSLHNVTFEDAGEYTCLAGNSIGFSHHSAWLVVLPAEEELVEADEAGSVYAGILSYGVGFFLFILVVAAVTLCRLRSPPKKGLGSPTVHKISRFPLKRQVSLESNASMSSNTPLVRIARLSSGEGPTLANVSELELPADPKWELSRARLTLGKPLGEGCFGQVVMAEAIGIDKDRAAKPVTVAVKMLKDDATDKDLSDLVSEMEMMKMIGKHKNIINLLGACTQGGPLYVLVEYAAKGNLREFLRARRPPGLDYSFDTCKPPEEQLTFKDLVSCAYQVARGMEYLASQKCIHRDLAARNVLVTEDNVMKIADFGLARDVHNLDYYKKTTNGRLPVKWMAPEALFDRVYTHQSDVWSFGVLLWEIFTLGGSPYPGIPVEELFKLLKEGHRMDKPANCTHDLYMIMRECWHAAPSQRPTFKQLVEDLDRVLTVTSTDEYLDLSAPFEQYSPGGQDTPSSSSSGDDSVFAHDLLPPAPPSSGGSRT

Jak2 = Jak2 (UniProt O60674); experiment: as above
Sequence of Jak2 (O60674 whole entry, looked up): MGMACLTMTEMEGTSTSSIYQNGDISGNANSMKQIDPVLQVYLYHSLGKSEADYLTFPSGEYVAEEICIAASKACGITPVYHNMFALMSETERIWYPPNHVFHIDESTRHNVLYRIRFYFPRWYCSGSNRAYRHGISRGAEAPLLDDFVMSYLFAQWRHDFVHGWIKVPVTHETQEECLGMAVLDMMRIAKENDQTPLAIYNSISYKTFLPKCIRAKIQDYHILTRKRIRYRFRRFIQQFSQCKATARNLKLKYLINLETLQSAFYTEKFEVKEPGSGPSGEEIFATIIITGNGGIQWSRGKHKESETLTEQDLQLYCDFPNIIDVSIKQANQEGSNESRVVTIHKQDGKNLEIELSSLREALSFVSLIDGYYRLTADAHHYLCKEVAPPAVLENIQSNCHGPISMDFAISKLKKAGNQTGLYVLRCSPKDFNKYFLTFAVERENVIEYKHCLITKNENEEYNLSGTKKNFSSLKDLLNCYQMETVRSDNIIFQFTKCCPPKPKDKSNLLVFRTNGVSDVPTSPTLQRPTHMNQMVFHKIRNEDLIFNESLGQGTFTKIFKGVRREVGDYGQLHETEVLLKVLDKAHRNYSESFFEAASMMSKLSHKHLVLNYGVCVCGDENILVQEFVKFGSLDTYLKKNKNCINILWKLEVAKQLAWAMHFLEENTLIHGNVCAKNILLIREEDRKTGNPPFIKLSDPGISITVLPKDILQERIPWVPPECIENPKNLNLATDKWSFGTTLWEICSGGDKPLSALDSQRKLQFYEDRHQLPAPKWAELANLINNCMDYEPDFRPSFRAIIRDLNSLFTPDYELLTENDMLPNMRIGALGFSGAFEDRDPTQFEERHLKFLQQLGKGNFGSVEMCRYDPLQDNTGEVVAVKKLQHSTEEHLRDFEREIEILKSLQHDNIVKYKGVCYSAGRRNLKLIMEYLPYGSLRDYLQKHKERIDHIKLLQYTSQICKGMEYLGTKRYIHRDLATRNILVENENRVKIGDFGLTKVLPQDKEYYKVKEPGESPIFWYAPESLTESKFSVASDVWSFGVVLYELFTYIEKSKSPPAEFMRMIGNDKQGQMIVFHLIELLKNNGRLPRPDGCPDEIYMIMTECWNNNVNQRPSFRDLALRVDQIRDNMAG

MERTK = MERTK (UniProt Q12866); experiment: as above
Sequence of MERTK (Q12866 whole entry, looked up): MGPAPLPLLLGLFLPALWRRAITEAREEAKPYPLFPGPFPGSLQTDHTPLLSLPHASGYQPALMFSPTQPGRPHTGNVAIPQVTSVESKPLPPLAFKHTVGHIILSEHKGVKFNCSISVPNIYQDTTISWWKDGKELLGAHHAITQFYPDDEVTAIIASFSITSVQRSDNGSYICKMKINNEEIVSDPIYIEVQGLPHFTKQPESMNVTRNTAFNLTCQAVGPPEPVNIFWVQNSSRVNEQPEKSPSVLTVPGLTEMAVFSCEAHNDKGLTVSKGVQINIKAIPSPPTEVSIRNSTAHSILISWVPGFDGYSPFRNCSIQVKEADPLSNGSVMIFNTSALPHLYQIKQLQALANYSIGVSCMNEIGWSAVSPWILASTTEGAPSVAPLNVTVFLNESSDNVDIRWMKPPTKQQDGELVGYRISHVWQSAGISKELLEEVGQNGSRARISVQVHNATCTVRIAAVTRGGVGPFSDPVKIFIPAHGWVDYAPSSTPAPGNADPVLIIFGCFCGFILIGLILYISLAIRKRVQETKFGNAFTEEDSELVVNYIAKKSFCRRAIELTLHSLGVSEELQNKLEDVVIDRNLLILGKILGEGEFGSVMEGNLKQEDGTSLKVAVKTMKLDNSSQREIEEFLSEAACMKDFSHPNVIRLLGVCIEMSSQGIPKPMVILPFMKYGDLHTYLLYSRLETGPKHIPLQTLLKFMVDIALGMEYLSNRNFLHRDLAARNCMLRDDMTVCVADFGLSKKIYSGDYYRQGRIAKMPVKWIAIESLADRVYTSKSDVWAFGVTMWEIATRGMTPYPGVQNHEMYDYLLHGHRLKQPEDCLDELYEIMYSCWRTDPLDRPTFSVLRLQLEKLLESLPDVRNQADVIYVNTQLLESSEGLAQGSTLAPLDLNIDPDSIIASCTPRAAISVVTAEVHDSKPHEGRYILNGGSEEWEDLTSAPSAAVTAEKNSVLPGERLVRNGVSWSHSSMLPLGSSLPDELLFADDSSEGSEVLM

Fes = Fes (UniProt P07332); experiment: as above
Sequence of Fes (P07332 whole entry, looked up): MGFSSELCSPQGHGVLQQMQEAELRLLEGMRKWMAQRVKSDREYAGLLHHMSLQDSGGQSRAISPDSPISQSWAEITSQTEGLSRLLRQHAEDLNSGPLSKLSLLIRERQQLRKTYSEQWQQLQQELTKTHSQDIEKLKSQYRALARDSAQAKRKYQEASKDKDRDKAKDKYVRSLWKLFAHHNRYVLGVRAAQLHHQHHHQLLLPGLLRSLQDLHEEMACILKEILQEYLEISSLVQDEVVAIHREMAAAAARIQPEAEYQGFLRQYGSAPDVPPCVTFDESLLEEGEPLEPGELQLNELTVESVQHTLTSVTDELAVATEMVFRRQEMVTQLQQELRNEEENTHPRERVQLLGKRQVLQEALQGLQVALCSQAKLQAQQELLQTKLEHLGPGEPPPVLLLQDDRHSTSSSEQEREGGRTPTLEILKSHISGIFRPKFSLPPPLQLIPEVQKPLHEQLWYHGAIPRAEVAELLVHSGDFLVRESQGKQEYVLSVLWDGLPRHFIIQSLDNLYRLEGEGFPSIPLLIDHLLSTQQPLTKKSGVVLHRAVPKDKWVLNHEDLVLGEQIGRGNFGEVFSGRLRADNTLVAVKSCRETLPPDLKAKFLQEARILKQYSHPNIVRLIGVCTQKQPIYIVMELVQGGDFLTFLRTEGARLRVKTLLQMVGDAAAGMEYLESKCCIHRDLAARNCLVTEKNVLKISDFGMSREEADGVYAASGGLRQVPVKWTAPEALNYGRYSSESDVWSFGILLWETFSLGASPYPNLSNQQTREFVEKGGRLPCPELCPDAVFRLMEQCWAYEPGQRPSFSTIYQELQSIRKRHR

FGFR1 = FGFR1 (UniProt P11362); experiment: as above
c-Src = experiment: as above
AncSZ = experiment: as above
EPHB2 = EPHB2 (UniProt P29323); experiment: as above
Hck = Hck (UniProt P08631); experiment: as above
Sequence of Hck (P08631 whole entry, looked up): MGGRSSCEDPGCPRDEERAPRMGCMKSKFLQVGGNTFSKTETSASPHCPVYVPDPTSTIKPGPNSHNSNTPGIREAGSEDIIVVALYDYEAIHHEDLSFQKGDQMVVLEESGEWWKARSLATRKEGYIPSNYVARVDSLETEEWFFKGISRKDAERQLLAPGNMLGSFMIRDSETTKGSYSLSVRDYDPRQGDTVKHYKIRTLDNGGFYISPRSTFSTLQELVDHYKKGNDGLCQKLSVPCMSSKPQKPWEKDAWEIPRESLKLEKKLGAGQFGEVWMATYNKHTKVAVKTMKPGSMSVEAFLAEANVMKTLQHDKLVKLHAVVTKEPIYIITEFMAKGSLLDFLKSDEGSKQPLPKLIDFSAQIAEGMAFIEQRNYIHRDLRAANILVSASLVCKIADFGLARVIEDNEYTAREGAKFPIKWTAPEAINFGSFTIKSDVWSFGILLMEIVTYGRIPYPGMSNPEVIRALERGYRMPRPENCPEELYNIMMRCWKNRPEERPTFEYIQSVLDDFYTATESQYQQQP

EPHB1 = EPHB1 (UniProt P54762); experiment: as above
c-Abl (mouse) = experiment: as above
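For SH2 binding enrichment of the phosphorylated peptide, bacterial display in this document: peptide library displayed on the E. coli surface as eCPX fusions, selected cells deep-sequenced, score is each peptide's frequency after selection divided by its frequency in the input.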
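For phosphorylation enrichment, bacterial display in this document: 11-residue human phosphosite peptides and single-mutation variants displayed on the E. coli surface, counted by deep sequencing, each peptide's frequency after selection divided by its frequency in the unselected input library; frequency after pTyr selection over input frequency; kinase dosed for 20-30% of maximal phosphorylation in three min.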

| Sequence | SH2 binding enrichment (c-Src SH2) | SH2 binding enrichment (Grb2 SH2) | SH2 binding enrichment (SHP2-C SH2) | phosphorylation enrichment (Fer (mouse)) | phosphorylation enrichment (Fyn) | phosphorylation enrichment (FGFR3) | phosphorylation enrichment (Jak2) | phosphorylation enrichment (MERTK) | phosphorylation enrichment (Fes) | phosphorylation enrichment (FGFR1) | phosphorylation enrichment (c-Src) | phosphorylation enrichment (AncSZ) | phosphorylation enrichment (EPHB2) | phosphorylation enrichment (Hck) | phosphorylation enrichment (EPHB1) | phosphorylation enrichment (c-Abl (mouse)) |
| --- | --- | --- | --- | --- | --- | --- | --- | --- | --- | --- | --- | --- | --- | --- | --- | --- |
| PEFVVYKPQME [CCRL2_Y170] | 0.635 | 1.02 | 0.686 | 0.898 | 0.814 | 1.08 | 1.82 | 0.972 | 1.82 | 0.673 | 0.783 | 1.7 | 0.843 | 0.883 | 1.12 | 1.42 |
| PIQLFYTRRNT [GHR_Y86] | 0.492 | 0.74 | 0.594 | 0.913 | 0.938 | 0.884 | 0.713 | 0.691 | 1.13 | 0.982 | 0.919 | 1.18 | 0.775 | 0.957 | 0.766 | 0.738 |
| PLFSKYWPNHI [GREB1L_Y1560_R1558S_YF] | 0.459 | 0.917 | 0.736 | 0.907 | 0.805 | 0.724 | 0.933 | 1.13 | 1.33 | 0.823 | 1.38 | 2.32 | 0.925 | 0.801 | 1 | 1.47 |
| PLLEFYWDIFT [CDAN1_Y713_R714W_YF] | 0.527 | 0.926 | 0.719 | 0.527 | 0.448 | 0.94 | 1.17 | 0.284 | 1.2 | 0.428 | 0.412 | 0.971 | 0.645 | 0.458 | 0.833 | 0.828 |
| PQGVRYIYTID [DCX_Y103] | 0.618 | 0.772 | 15.4 | 1 | 4.01 | 1.15 | 2.21 | 0.856 | 5.16 | 0.726 | 4.09 | 1.73 | 0.951 | 1.6 | 0.943 | 1.37 |
| PRAGVYPEKDQ [DNM2_Y626_L621P] | 0.403 | 0.635 | 0.917 | 0.658 | 0.658 | 0.759 | 1.08 | 0.511 | 1.26 | 0.642 | 0.682 | 1.16 | 0.622 | 0.662 | 0.734 | 0.865 |
| PRLLRYLQLDF [ASB10_Y457] | 1.11 | 1.27 | 1.6 | 0.662 | 0.692 | 0.873 | 1.53 | 0.701 | 1.67 | 0.648 | 0.616 | 1.39 | 0.73 | 0.65 | 0.995 | 1.04 |
| PRLMLYNPTTF [EGFR_Y270_P266R_YF] | 0.505 | 0.968 | 0.631 | 0.848 | 0.748 | 1.04 | 1.38 | 0.703 | 1.18 | 0.772 | 0.729 | 1.16 | 0.811 | 0.618 | 0.763 | 1.12 |
| PSARTYCYKQE [KLHDC9_Y175] | 0.643 | 0.768 | 0.815 | 0.666 | 0.533 | 0.907 | 0.762 | 0.736 | 1.29 | 0.454 | 0.439 | 1.14 | 0.721 | 0.506 | 0.647 | 0.63 |

Second part, led by results:

| SH2 binding enrichment (c-Src SH2) | SH2 binding enrichment (Grb2 SH2) | SH2 binding enrichment (SHP2-C SH2) | Sequence | phosphorylation enrichment (Fer (mouse)) | phosphorylation enrichment (Fyn) | phosphorylation enrichment (FGFR3) | phosphorylation enrichment (Jak2) | phosphorylation enrichment (MERTK) | phosphorylation enrichment (Fes) | phosphorylation enrichment (FGFR1) | phosphorylation enrichment (c-Src) | phosphorylation enrichment (AncSZ) | phosphorylation enrichment (EPHB2) | phosphorylation enrichment (Hck) | phosphorylation enrichment (EPHB1) | phosphorylation enrichment (c-Abl (mouse)) |
| --- | --- | --- | --- | --- | --- | --- | --- | --- | --- | --- | --- | --- | --- | --- | --- | --- |
| 1.32 | 0.883 | 0.631 | PEVSGYCHFAD [TG_Y234_C237Y_YF] | 0.517 | 0.532 | 0.773 | 1.15 | 0.384 | 1.39 | 0.709 | 0.572 | 1.29 | 0.782 | 0.639 | 0.745 | 0.937 |
| 0.666 | 0.857 | 1.03 | PFADPYFDFEI [ZC3H18_Y371_YF] | 0.902 | 0.885 | 6.94 | 1.7 | 0.638 | 1.16 | 9.45 | 4.46 | 1.48 | 0.369 | 0.597 | 0.673 | 0.811 |
| 0.595 | 0.682 | 0.612 | PFIDSYEKDVA [PGM1_Y521_L516P_YF] | 0.35 | 0.656 | 0.636 | 0.594 | 0.378 | 1.04 | 0.592 | 0.375 | 1.07 | 0.708 | 0.606 | 0.574 | 0.51 |
| 0.776 | 0.933 | 1.12 | PGGKIYISPLK [RB1_Y805_N803K] | 0.441 | 0.513 | 0.583 | 0.72 | 0.461 | 0.794 | 0.45 | 0.422 | 0.598 | 0.763 | 0.456 | 0.361 | 1.17 |
| 0.561 | 1.04 | 0.629 | PGVNYYFQVSA | 0.907 | 0.611 | 3.16 | 2.79 | 0.734 | 2.14 | 2.98 | 0.692 | 2.15 | 1.49 | 1.03 | 1.61 | 1.48 |
| 0.493 | 0.347 | 0.651 | PLEGEYFTLQI [TP53_Y327_D324E] | 3.01 | 9.83 | 15.5 | 5.5 | 0.967 | 3 | 18.5 | 7.65 | 6.22 | 5.04 | 4.86 | 4.24 | 2.98 |
| 0.383 | 0.679 | 0.555 | PMQLPHDSTWE [PDGFRB_Y589_Y589H] | 0.737 | 0.582 | 1.23 | 1.34 | 0.531 | 1.96 | 0.66 | 0.628 | 2.22 | 0.776 | 0.78 | 0.829 | 1.61 |
| 1.98 | 1.45 | 1.36 | PPAPRYHHLAV [LZTR1_Y119_S122L] | 0.491 | 0.444 | 0.745 | 1.19 | 0.556 | 0.964 | 0.377 | 0.552 | 0.868 | 0.514 | 0.71 | 0.606 | 0.664 |
